In US11779592B2, “Inhibition of NGLY1 for the treatment of cancer” (University of North Texas Health Science Center, priority 2017, dated 2023):

Columns and labels:
NGLY1 = NGLY1 expression in stable clones of melanoma cells (immunoblotting); assay type: cell-based, human; conditions: stable clones of MALME3M, UACC257 and SK-MEL-2 cells, 48-hour treatment of dox
Excerpt: These NGLY1-targeting shRNA sequences and a scrambled (non-targeting) shRNA sequence were cloned into doxycycline (dox)-inducible, polycistronic green fluorescence protein (GFP)-shRNA expression constructs (a pZIP inducible lentiviral vector, TransOMIC). Stable clones have been generated with the shRNA expression constructs in multiple human melanoma cell lines, including MALME3M, UACC257, SK-MEL-2, and COLO829 melanoma cells. […] Similar knockdown effects were found in the stable clones of other melanoma cells with this particular NGLY1 shRNA sequence. […] Similar to human normal fibroblasts, normal melanocytes (FIG. 5D) and keratinocytes appeared to well tolerate NGLY1 knockdown and show no sign of increased cell death. In addition, SK-MEL-2, MALME3M cells that express inducible NGLY1 shRNA presented significant apoptosis, compared to their scrambled RNA-expressing counterparts. The expression of exogenous human NGLY1 in melanoma cells attenuated NGLY1-targeting shRNA-induced apoptosis (FIG. 5E).
(§1) The knockdown of NGLY1 expression in melanoma cells was achieved by the transduction of pZIP-TRE3GS lentiviral expression vectors that carry two independent shRNA sequences (Below; TransOMIC Technologies, Huntsville, AL). […] The expression of the shRNA sequences and an open reading frame of the ZsGreen reporter is driven by the TRE3GS doxycycline-inducible promoter. […]

HepG2 liver cancer cells = test: Cell morphology of HepG2 cells with NGLY1 knockdown; assay type: cell-based
[1] = system: U-251MG glioblastoma cells; test: Cell morphology of U-251MG cells with NGLY1 knockdown; assay type: cell-based
SK-MEL-2 tumors = test: Xenograft tumor model with SK-MEL-2 cells carrying inducible shRNA; assay type: in vivo, mice
Excerpt: (FIG. 14A) A schematic illustration of animal study design to test the in vivo antitumor efficacy of NGLY1 suppression in melanoma. (FIG. 14B) The volume changes of xenograted SK-MEL-2 tumors with the induction of NT-shRNA (n=10) and NGLY1-shRNA645 (n=8) for 35 days. Tumors were harvested at the end of the study for Western blotting analysis. Bars: median tumor volumes at the indicated time points. […] (FIG. 14C) The expression of NGLY1, GADD153, IRF3, and GFP (ZsGreen) proteins in selected tumors was analyzed by Western blotting. (FIG. 14D) The enhanced expression of IL-29 in the tumor tissues with NGLY1 knockdown was detected by immunofluorescence staining.
Six-week-old female NOD.CB17-Prkdc^scid/J mice (The Jackson Laboratory, Bar Harbor, ME) were group-housed under conditions of constant photoperiod (12 hours light: 12 hours dark) with ad libitum access to sterilized food and water. Since the animal work in this study was completed using an animal study service provided by the translational core laboratory at the University of Maryland, Baltimore, all experimental procedures and protocols utilizing mice were approved by the Institutional Animal Care and Use Committee at the University of Maryland. […] Tumors were measured weekly using calipers and their volumes calculated using a standard formula: width^2×length×0.52. Body weights were measured weekly. […]

UACC257 cells = test: Cell morphology of UACC257 stable clones with dox-inducible shRNA; assay type: cell-based, human; conditions: 2 μM dox for 72 hours
Protocol: (FIG. 5A) The doxycycline (dox)-inducible pZIP-TRE3GS expression vector of non-targeting shRNA and NGLY1-targeting shRNA sequences. (FIG. 5B) The stable clones of UACC257 cells with dox-inducible shRNA. […] Cells with induced non-targeting (scramble)-shRNA maintain a morphology similar to the cells before dox induction. Cells were imaged after the treatment of 2 μM dox for 72 hours. BF: bright field. ZsGreen: green fluorescence protein. […] (FIG. 5E) The expression of human NGLY1-FLAG in SK-MEL-2 (SK) cells attenuates NGLY1-targeting shRNA-induced apoptosis. EV: empty vector, NGLY1-F: NGLY1-FLAG expression vector. […] All data were presented as mean±standard deviation (n=3, *P<0.05, […]). […] The cell viability curves of combinatorial treatment were plotted according to the doses of dox used in the treatment. Combination indexes were calculated using Calcusyn software. A combination index value <1 was considered synergistic. A combination index value <0.2 was considered highly synergistic. […]
as §1

B1: NGLY1-shRNA645: NGLY1-targeting shRNA sequence (SEQ ID NO: 5), dox-inducible lentiviral vector; used in the xenograft study (nucleic acid)
DNA: CCGAGUUUCAAAUAACAAUCAAUAGUGAAGCCACAGAUGUAUUGAUUGUUAUUUGAAACUCGAU
- expression of NGLY1 (NGLY1): largely suppressed
- cell morphology (HepG2 liver cancer cells): morphology of apoptosis
- cell morphology [1]: morphology of apoptosis
- tumors that showed regression at the end of the study (SK-MEL-2 tumors; after size increase during the initial 3-4 weeks of dox treatment): three out of eight
- growth of melanoma tumors (SK-MEL-2 tumors; dox-induced knockdown, 5 weeks): impeded
- cell morphology (UACC257 cells): morphological features of apoptosis
